T1: DFNB31_2, Q9P202
T1 sequence (Q9P202 274-371, limits assumed, looked up): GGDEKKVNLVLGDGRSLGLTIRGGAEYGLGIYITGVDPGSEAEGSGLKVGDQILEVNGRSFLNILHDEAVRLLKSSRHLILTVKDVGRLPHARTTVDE

T2: DFNB31_3, Q9P202
T2 sequence (Q9P202 811-907, limits assumed, looked up): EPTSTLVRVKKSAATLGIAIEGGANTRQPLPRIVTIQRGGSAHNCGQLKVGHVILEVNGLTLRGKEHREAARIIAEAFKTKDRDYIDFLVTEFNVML

T3: DLG3_3, Q92796
T3 sequence (Q92796 374-475, limits assumed, looked up): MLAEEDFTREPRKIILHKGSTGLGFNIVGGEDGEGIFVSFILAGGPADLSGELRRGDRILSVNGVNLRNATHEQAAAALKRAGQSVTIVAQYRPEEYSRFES

T4: DVL3, Q92997
T4 sequence (Q92997 244-331, limits assumed, looked up): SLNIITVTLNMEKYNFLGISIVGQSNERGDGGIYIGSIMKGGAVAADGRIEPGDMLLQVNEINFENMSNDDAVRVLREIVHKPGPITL

T5: GRIP1_5, Q9Y3R0
T5 sequence (Q9Y3R0 568-668, limits assumed, looked up): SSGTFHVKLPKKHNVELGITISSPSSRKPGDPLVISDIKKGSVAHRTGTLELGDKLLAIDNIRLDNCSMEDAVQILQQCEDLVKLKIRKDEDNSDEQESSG

T6: GRIP1_7, Q9Y3R0
T6 sequence (Q9Y3R0 999-1096, limits assumed, looked up): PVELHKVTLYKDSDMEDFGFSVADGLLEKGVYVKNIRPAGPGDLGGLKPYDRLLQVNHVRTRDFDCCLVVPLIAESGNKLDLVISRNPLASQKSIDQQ

T7: LIN7C, Q9NUP9
T7 sequence (Q9NUP9 88-185, limits assumed, looked up): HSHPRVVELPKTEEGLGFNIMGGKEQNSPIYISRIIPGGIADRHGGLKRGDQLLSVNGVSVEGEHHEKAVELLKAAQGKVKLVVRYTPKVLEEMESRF

T8: LNX2_2, Q8N448
T8 sequence (Q8N448 334-432, limits assumed, looked up): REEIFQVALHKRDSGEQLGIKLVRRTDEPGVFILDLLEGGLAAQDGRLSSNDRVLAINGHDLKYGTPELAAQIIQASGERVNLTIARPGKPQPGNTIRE

T9: LNX2_3, Q8N448
T9 sequence (Q8N448 463-564, limits assumed, looked up): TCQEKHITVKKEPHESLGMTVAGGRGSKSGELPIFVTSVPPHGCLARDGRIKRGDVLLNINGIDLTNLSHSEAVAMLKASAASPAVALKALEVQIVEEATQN

T10: MPP2, Q14168
T10 sequence (Q14168 180-250, limits assumed, looked up): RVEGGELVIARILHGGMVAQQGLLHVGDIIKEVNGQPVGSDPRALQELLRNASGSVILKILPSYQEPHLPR

T11: NHERF3_1, Q5T2W1
T11 sequence (Q5T2W1 4-100, limits assumed, looked up): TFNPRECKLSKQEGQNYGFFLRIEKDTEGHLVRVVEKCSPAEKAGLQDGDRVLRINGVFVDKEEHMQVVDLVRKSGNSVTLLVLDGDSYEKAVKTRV

T12: PTPN13_1, Q12923
T12 sequence (Q12923 1088-1188, limits assumed, looked up): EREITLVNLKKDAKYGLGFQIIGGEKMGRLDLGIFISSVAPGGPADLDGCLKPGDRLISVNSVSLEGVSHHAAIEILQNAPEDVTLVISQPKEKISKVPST


These binders were tested against T1, DFNB31_2, Q9P202 (assay: holdup assay). Conditions: plain residues with an end cap or a label only (N-terminal biotin on a linker: ado-ado).
Design: key: below the threshold = too weak to quantify, mostly under pKd 3.1 to 4

Binder | pKd
EIPAQSPTCV [FZD10, Q9ULW2] | below the threshold
DFLSTFHIRI [CIB2, O75838] | below the threshold

The binders below were run against T2, DFNB31_3, Q9P202 (assay: holdup assay). Conditions: plain residues with an end cap or a label only (N-terminal biotin on a linker: ado-ado).
Design: key: below the threshold = too weak to quantify, mostly under pKd 3.1 to 4

Binder | pKd
EIPAQSPTCV [FZD10, Q9ULW2] | below the threshold
DFLSTFHIRI [CIB2, O75838] | 3.5

Each binder was assayed against DLG1_1, Q12959 (assay: holdup assay). Conditions: plain residues with an end cap or a label only (N-terminal biotin on a linker: ado-ado).
Design: key: below the threshold = too weak to quantify, mostly under pKd 3.1 to 4

Binder | pKd
EIPAQSPTCV [FZD10, Q9ULW2] | 3.85
DFLSTFHIRI [CIB2, O75838] | below the threshold

Each binder was assayed against T3, DLG3_3, Q92796 (assay: holdup assay). Conditions: plain residues with an end cap or a label only (N-terminal biotin on a linker: ado-ado).
Design: key: below the threshold = too weak to quantify, mostly under pKd 3.1 to 4

Binder | pKd
EIPAQSPTCV [FZD10, Q9ULW2] | 3.81
DFLSTFHIRI [CIB2, O75838] | below the threshold

Each binder was assayed against T4, DVL3, Q92997 (assay: holdup assay). Conditions: plain residues with an end cap or a label only (N-terminal biotin on a linker: ado-ado).
Design: key: below the threshold = too weak to quantify, mostly under pKd 3.1 to 4

Binder | pKd
EIPAQSPTCV [FZD10, Q9ULW2] | 3.6
DFLSTFHIRI [CIB2, O75838] | 3.59

What follows are binders tested against FRMPD3, Q5JV73 (assay: holdup assay). Conditions: plain residues with an end cap or a label only (N-terminal biotin on a linker: ado-ado).
Design: key: below the threshold = too weak to quantify, mostly under pKd 3.1 to 4

Sequence of FRMPD3, Q5JV73 (Q5JV73 12-100): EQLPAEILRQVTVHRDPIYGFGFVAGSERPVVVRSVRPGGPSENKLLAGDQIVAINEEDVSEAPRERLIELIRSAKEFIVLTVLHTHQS

Binder | pKd
EIPAQSPTCV [FZD10, Q9ULW2] | 3.49
DFLSTFHIRI [CIB2, O75838] | below the threshold

What follows are binders tested against T5, GRIP1_5, Q9Y3R0 (assay: holdup assay). Conditions: plain residues with an end cap or a label only (N-terminal biotin on a linker: ado-ado).
Design: key: below the threshold = too weak to quantify, mostly under pKd 3.1 to 4

Binder | pKd
EIPAQSPTCV [FZD10, Q9ULW2] | below the threshold
DFLSTFHIRI [CIB2, O75838] | below the threshold

What follows are binders tested against T6, GRIP1_7, Q9Y3R0 (assay: holdup assay). Conditions: plain residues with an end cap or a label only (N-terminal biotin on a linker: ado-ado).
Design: key: below the threshold = too weak to quantify, mostly under pKd 3.1 to 4

Binder | pKd
EIPAQSPTCV [FZD10, Q9ULW2] | 3.67
DFLSTFHIRI [CIB2, O75838] | below the threshold

These binders were tested against GRIP2_6, Q9C0E4 (assay: holdup assay). Conditions: plain residues with an end cap or a label only (N-terminal biotin on a linker: ado-ado).
Design: key: below the threshold = too weak to quantify, mostly under pKd 3.1 to 4

Sequence of GRIP2_6, Q9C0E4 (Q9C0E4 648-740): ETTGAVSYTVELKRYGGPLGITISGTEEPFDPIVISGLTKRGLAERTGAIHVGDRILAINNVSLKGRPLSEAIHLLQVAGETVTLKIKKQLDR

Binder | pKd
EIPAQSPTCV [FZD10, Q9ULW2] | 3.74
DFLSTFHIRI [CIB2, O75838] | 4.58

What follows are binders tested against IL16_3, Q14005 (assay: holdup assay). Conditions: plain residues with an end cap or a label only (N-terminal biotin on a linker: ado-ado).
Design: key: below the threshold = too weak to quantify, mostly under pKd 3.1 to 4

Sequence of IL16_3, Q14005 (Q14005 1107-1207): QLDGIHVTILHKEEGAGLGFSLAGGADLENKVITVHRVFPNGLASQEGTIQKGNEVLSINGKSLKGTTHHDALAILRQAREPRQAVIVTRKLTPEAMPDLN

Binder | pKd
EIPAQSPTCV [FZD10, Q9ULW2] | below the threshold
DFLSTFHIRI [CIB2, O75838] | below the threshold

These binders were tested against Inadl_4, Q8NI35 (assay: holdup assay). Conditions: plain residues with an end cap or a label only (N-terminal biotin on a linker: ado-ado).
Design: key: below the threshold = too weak to quantify, mostly under pKd 3.1 to 4

Sequence of Inadl_4, Q8NI35 (Q8NI35 547-651): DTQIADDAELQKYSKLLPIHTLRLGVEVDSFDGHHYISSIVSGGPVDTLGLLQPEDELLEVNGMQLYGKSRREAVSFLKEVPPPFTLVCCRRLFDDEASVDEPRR

Binder | pKd
EIPAQSPTCV [FZD10, Q9ULW2] | 3.64
DFLSTFHIRI [CIB2, O75838] | below the threshold

These binders were tested against LIMK2, P53671 (assay: holdup assay). Conditions: plain residues with an end cap or a label only (N-terminal biotin on a linker: ado-ado).
Design: key: below the threshold = too weak to quantify, mostly under pKd 3.1 to 4

Sequence of LIMK2, P53671 (P53671 143-248): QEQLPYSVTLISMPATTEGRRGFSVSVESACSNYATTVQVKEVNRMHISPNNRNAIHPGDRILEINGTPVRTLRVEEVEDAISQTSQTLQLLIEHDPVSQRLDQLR

Binder | pKd
EIPAQSPTCV [FZD10, Q9ULW2] | below the threshold
DFLSTFHIRI [CIB2, O75838] | below the threshold

These binders were tested against T7, LIN7C, Q9NUP9 (assay: holdup assay). Conditions: plain residues with an end cap or a label only (N-terminal biotin on a linker: ado-ado).
Design: key: below the threshold = too weak to quantify, mostly under pKd 3.1 to 4

Binder | pKd
EIPAQSPTCV [FZD10, Q9ULW2] | below the threshold
DFLSTFHIRI [CIB2, O75838] | below the threshold

The binders below were run against LNX1_1, Q8TBB1 (assay: holdup assay). Conditions: plain residues with an end cap or a label only (N-terminal biotin on a linker: ado-ado).
Design: key: below the threshold = too weak to quantify, mostly under pKd 3.1 to 4

Sequence of LNX1_1, Q8TBB1 (Q8TBB1 261-371): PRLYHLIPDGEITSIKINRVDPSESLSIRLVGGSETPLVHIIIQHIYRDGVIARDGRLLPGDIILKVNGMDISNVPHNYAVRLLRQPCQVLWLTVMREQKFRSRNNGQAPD

Binder | pKd
EIPAQSPTCV [FZD10, Q9ULW2] | below the threshold
DFLSTFHIRI [CIB2, O75838] | below the threshold

Each binder was assayed against T8, LNX2_2, Q8N448 (assay: holdup assay). Conditions: plain residues with an end cap or a label only (N-terminal biotin on a linker: ado-ado).
Design: key: below the threshold = too weak to quantify, mostly under pKd 3.1 to 4

Binder | pKd
EIPAQSPTCV [FZD10, Q9ULW2] | 5.04
DFLSTFHIRI [CIB2, O75838] | 3.74

These binders were tested against T9, LNX2_3, Q8N448 (assay: holdup assay). Conditions: plain residues with an end cap or a label only (N-terminal biotin on a linker: ado-ado).
Design: key: below the threshold = too weak to quantify, mostly under pKd 3.1 to 4

Binder | pKd
EIPAQSPTCV [FZD10, Q9ULW2] | 3.78
DFLSTFHIRI [CIB2, O75838] | below the threshold

These binders were tested against MAGI1_2, Q96QZ7 (assay: holdup assay). Conditions: plain residues with an end cap or a label only (N-terminal biotin on a linker: ado-ado).
Design: key: below the threshold = too weak to quantify, mostly under pKd 3.1 to 4

Sequence of MAGI1_2, Q96QZ7 (Q96QZ7 456-580): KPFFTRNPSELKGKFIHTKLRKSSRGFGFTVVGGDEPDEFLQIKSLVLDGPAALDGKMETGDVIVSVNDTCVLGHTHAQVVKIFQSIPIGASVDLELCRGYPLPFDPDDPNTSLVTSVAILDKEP

Binder | pKd
EIPAQSPTCV [FZD10, Q9ULW2] | 3.88
DFLSTFHIRI [CIB2, O75838] | below the threshold

Each binder was assayed against MAGI2_3, Q86UL8 (assay: holdup assay). Conditions: plain residues with an end cap or a label only (N-terminal biotin on a linker: ado-ado).
Design: key: below the threshold = too weak to quantify, mostly under pKd 3.1 to 4

Sequence of MAGI2_3, Q86UL8 (Q86UL8 600-682): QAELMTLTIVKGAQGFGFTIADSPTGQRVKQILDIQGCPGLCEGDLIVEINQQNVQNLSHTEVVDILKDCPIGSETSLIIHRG

Binder | pKd
EIPAQSPTCV [FZD10, Q9ULW2] | below the threshold
DFLSTFHIRI [CIB2, O75838] | below the threshold

Each binder was assayed against T10, MPP2, Q14168 (assay: holdup assay). Conditions: plain residues with an end cap or a label only (N-terminal biotin on a linker: ado-ado).
Design: key: below the threshold = too weak to quantify, mostly under pKd 3.1 to 4

Binder | pKd
EIPAQSPTCV [FZD10, Q9ULW2] | below the threshold
DFLSTFHIRI [CIB2, O75838] | below the threshold

What follows are binders tested against T11, NHERF3_1, Q5T2W1 (assay: holdup assay). Conditions: plain residues with an end cap or a label only (N-terminal biotin on a linker: ado-ado).
Design: key: below the threshold = too weak to quantify, mostly under pKd 3.1 to 4

Binder | pKd
EIPAQSPTCV [FZD10, Q9ULW2] | below the threshold
DFLSTFHIRI [CIB2, O75838] | below the threshold

Each binder was assayed against NHERF4_1, Q86UT5-2 (assay: holdup assay). Conditions: plain residues with an end cap or a label only (N-terminal biotin on a linker: ado-ado).
Design: key: below the threshold = too weak to quantify, mostly under pKd 3.1 to 4

Sequence of NHERF4_1, Q86UT5-2 (Q86UT5 other isoform, or with tags, fused parts or gaps): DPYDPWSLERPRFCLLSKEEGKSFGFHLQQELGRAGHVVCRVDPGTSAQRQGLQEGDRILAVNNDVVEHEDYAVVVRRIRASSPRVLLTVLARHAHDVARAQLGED

Binder | pKd
EIPAQSPTCV [FZD10, Q9ULW2] | 3.91
DFLSTFHIRI [CIB2, O75838] | below the threshold

These binders were tested against T12, PTPN13_1, Q12923 (assay: holdup assay). Conditions: plain residues with an end cap or a label only (N-terminal biotin on a linker: ado-ado).
Design: key: below the threshold = too weak to quantify, mostly under pKd 3.1 to 4

Binder | pKd
EIPAQSPTCV [FZD10, Q9ULW2] | 3.72
DFLSTFHIRI [CIB2, O75838] | below the threshold

Each binder was assayed against PTPN3, P26045 (assay: holdup assay). Conditions: plain residues with an end cap or a label only (N-terminal biotin on a linker: ado-ado).
Design: key: below the threshold = too weak to quantify, mostly under pKd 3.1 to 4

Sequence of PTPN3, P26045 (P26045 505-587): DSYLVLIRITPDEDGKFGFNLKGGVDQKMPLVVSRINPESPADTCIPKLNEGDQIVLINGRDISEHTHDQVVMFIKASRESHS

Binder | pKd
EIPAQSPTCV [FZD10, Q9ULW2] | 3.77
DFLSTFHIRI [CIB2, O75838] | below the threshold

What follows are binders tested against SCRIB_2, Q14160 (assay: holdup assay). Conditions: plain residues with an end cap or a label only (N-terminal biotin on a linker: ado-ado).
Design: key: below the threshold = too weak to quantify, mostly under pKd 3.1 to 4

Sequence of SCRIB_2, Q14160 (Q14160 857-960): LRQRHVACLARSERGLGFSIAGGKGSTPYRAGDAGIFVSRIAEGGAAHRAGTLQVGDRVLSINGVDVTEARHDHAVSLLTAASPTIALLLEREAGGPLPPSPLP

Binder | pKd
EIPAQSPTCV [FZD10, Q9ULW2] | below the threshold
DFLSTFHIRI [CIB2, O75838] | below the threshold

These binders were tested against SCRIB_3, Q14160 (assay: holdup assay). Conditions: plain residues with an end cap or a label only (N-terminal biotin on a linker: ado-ado).
Design: key: below the threshold = too weak to quantify, mostly under pKd 3.1 to 4

Sequence of SCRIB_3, Q14160 (Q14160 999-1103): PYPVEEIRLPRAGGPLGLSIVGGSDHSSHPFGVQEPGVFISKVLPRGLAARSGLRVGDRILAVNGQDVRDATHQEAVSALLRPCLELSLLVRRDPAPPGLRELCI

Binder | pKd
EIPAQSPTCV [FZD10, Q9ULW2] | 3.99
DFLSTFHIRI [CIB2, O75838] | 3.56

These binders were tested against TJP2_1, Q9UDY2 (assay: holdup assay). Conditions: plain residues with an end cap or a label only (N-terminal biotin on a linker: ado-ado).
Design: key: below the threshold = too weak to quantify, mostly under pKd 3.1 to 4

Sequence of TJP2_1, Q9UDY2 (Q9UDY2 24-128): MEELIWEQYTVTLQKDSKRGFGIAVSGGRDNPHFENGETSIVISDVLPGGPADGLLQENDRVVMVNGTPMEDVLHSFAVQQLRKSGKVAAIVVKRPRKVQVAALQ

Binder | pKd
EIPAQSPTCV [FZD10, Q9ULW2] | 3.82
DFLSTFHIRI [CIB2, O75838] | below the threshold
